# Measurements reported in patent US20240092919A1 (Ablynx, published 2024).
# Substitutions are numbered along the chain they refer to. Numbers in names are those of the source.
# T1: Human T cell receptor on human primary T cells (human, UniProt P01848 1-140; P01850 1-176)
# T1 TCR alpha (looked up): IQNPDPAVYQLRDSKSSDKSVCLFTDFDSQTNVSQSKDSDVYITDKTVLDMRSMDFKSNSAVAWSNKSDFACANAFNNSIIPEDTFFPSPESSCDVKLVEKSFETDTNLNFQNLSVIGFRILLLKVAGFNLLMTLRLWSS
# T1 TCR beta (looked up): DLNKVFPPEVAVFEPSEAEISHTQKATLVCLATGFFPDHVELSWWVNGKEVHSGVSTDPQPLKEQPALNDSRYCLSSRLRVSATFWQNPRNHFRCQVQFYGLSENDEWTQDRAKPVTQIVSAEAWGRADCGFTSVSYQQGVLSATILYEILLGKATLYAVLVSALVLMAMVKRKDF
# T2: Cynomolgus TCR(AEA41865/AEA41866)-zipper protein (cynomolgus monkey)
# T2 construct: also called cyTCR-zipper protein; cynoTCR zipper
# T2 TCR alpha: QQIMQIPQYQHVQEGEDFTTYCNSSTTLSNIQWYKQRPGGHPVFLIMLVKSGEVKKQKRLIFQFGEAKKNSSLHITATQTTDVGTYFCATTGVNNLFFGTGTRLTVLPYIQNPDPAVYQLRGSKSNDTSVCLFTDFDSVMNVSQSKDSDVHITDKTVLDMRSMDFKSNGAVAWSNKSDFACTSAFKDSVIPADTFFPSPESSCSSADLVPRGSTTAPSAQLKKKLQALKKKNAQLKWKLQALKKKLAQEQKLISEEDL
# T2 TCR beta: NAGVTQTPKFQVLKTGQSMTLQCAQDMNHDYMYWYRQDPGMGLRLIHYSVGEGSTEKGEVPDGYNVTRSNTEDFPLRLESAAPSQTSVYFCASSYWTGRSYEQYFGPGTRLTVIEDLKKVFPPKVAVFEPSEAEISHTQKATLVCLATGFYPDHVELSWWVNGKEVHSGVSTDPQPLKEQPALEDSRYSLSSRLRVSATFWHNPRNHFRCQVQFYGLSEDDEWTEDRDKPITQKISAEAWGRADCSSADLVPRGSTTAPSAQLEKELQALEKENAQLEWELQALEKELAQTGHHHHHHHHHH
# T3: Cynomolgus TCR(AEA41865/AEA41866)-zipper protein (cynomolgus monkey)
# T3 construct: also called cyTCR-zipper protein; cynoTCR zipper
# T3 TCR alpha: T2 TCR alpha
# T3 TCR beta: T2 TCR beta
# B1: T017000630 (bispecific antibody)
# chain: DVQLVESGGGLVQAGGSLRLSCAASGITSKINDMGWYRQTPGNYREWVASITATGTTNYRDSVKGRFTISRDNAKSTVYLQMNSLKPEDTTVYYCNTFPPISNFWGQGTLVTVSSGGGGSGGGGSGGGGSGGGGSGGGGSGGGGSGGGGSEVQLVESGGGVVQPGGSLRLSCVASWDVHKINFYGWYRQAPGKEREKVAHISIGDQTDYADSAKGRFTISRDESKNTVYLQMNSLRPEDTALYYCRALSKIWPYDYWGQGTLVTVSSA
# notes: also called A0110056A10(E1D)-35GS-T0170056G05(L11V, G26W, L34Y, M77T, K83R, V89L, F91Y, F95L, R97K, Y99W)-A
# B2: T017000640 (bispecific antibody)
# chain: B1 chain with G185T, K250R
# notes: also called A0110056A10(E1D)-35GS-T0170056G05(L11V, G26W, L34Y, G35T, M77T, K83R, V89L, F91Y, F95L, Y99W)-A
# B3: T017000631 (bispecific antibody)
# chain: B1 chain with W176Y
# notes: also called A0110056A10(E1D)-35GS-T0170056G05(L11V, G26Y, L34Y, M77T, K83R, V89L, F91Y, F95L, R97K, Y99W)-A
# B4: T017000643 (bispecific antibody)
# chain: B1 chain with G185T
# notes: also called A0110056A10(E1D)-35GS-T0170056G05(L11V, G26W, L34Y, G35T, M77T, K83R, V89L, F91Y, F95L, R97K, Y99W)-A
# B5: T017000627 (bispecific antibody)
# chain: DVQLVESGGGVVQPGGSLRLSCVASWDVHKINFYGWYRQAPGKEREKVAHISIGDQTDYADSAKGRFTISRDESKNTVYLQMNSLRPEDTALYYCRALSKIWPYDYWGQGTLVTVSSGGGGSGGGGSGGGGSGGGGSGGGGSGGGGSGGGGSEVQLVESGGGLVQAGGSLRLSCAASGITSKINDMGWYRQTPGNYREWVASITATGTTNYRDSVKGRFTISRDNAKSTVYLQMNSLKPEDTTVYYCNTFPPISNFWGQGTLVTVSSA
# B6: T017000636 (bispecific antibody)
# chain: B5 chain with K30Q, K100R
# B7: T017000642 (bispecific antibody)
# chain: B5 chain with G35T
# B8: T017000639 (bispecific antibody)
# chain: B5 chain with G35T, K100R
# B9: T017000254 (VHH)
# VHH: EVQLVESGGGVVQPGGSLRLSCVASGDVHKINFLGWYRQAPGKEREKVAHISIGDRTDYADSAKGRFTISRDESKNMVYLQMNSLRPEDTALYFCRAFSRIYPYDYWGQGTLVTVSS
# B10: T017000249 (VHH)
# VHH: B9 VHH with R56V
# B11: T017000258 (VHH)
# VHH: B9 VHH with D55E, R56Q
# B12: T017000294 (VHH)
# VHH: B9 VHH with R56Q, Y106W
# B13: T017000287 (VHH)
# VHH: B9 VHH with R56Q, D105Q
# B14: T017000301 (VHH)
# VHH: B9 VHH with R56Q, D105A
# B15: T017000291 (VHH)
# VHH: B9 VHH with R56Q, Y102W
# B16: T017000312 (VHH)
# VHH: B9 VHH with R56Q, F98L
# B17: T017000290 (VHH)
# VHH: B9 VHH with R56Q, R100K
# B18: T017000281 (VHH)
# VHH: B9 VHH with R56Q, F98M
# B19: T017000285 (VHH)
# VHH: B9 VHH with R56Q, D105L
# B20: T017000283 (VHH)
# VHH: B9 VHH with R56Q, R100S
# B21: T017000302 (VHH)
# VHH: B9 VHH with R56Q, D105T
# B22: T017000278 (VHH)
# VHH: B9 VHH with R56Q, D105S
# B23: T017000390 (VHH)
# VHH: B9 VHH with G26W, K30Q, R56Q, F98M, R100K, Y102W
# B24: T017000468 (VHH)
# VHH: B9 VHH with D27S, L34Y, R56Q, Y102W
# B25: T017000358 (VHH)
# VHH: B9 VHH with D27A, I31L, R56Q, F98M, Y102W
# B26: T017000383 (VHH)
# VHH: B9 VHH with K30Q, R56Q, F98M, Y102W
# B27: T017000569 (VHH)
# VHH: B9 VHH with I31L, R56Q, F98M, Y102W
# B28: T017000602 (VHH)
# VHH: B9 VHH with G26W, K30Q, R56Q, R100K, Y102W
# B29: T017000682 (VHH, not shown: small tags and cut ends)
# VHH: B9 VHH with D27A, L34Y, R56Q, M77T, F94Y, F98L, Y102W
# B30: T017000690 (VHH, not shown: small tags and cut ends)
# VHH: B9 VHH with G26W, D27E, L34Y, R56Q, M77T, F94Y, F98L, Y102W
# B31: T017000638 (VHH, not shown: small tags and cut ends)
# VHH: B9 VHH with G26W, L34Y, G35T, R56Q, M77T, F94Y, F98L, Y102W
# B32: T017000686 (VHH, not shown: small tags and cut ends)
# VHH: B9 VHH with D27S, L34Y, R56Q, M77T, F94Y, F98L, Y102W
# B33: T017000141 (VHH, not shown: small tags and cut ends)
# VHH: B9 VHH with R56Q
# notes: also called T0170000141
# Target: T1, Human T cell receptor on human primary …
# Test: cell-based or functional assay
# Throughout, for % Lysis, T cell mediated MOLM-13 cell killing, human primary T cells, E:T 10:1: test concentration or dose not given here.
Binder,"% Lysis, T cell mediated MOLM-13 cell killing, human primary T cells, E:T 10:1","EC50 (M), T cell mediated MOLM-13 cell killing, human primary T cells, E:T 10:1"
B1,0%,
B2,37%,5.7e-10 M
B3,0%,
B4,0%,
B5,36%,2.4e-10 M
B6,36%,6.6e-11 M
B7,32%,3e-10 M
B8,42%,3.6e-11 M

# Target: Cynomolgus T cell receptor on cynomolgus primary T cells (cynomolgus monkey); for % Lysis, T cell mediated MOLM-13 cell killing, cynomolgus primary T cells, E:T 10:1: test concentration or dose not given here
# Test: cell-based or functional assay
Binder,"EC50 (M), T cell mediated MOLM-13 cell killing, cynomolgus primary T cells, E:T 10:1","% Lysis, T cell mediated MOLM-13 cell killing, cynomolgus primary T cells, E:T 10:1"
B1,4.5e-10 M,
B2,,6%
B3,2e-10 M,35%
B4,1.6e-10 M,12%
B5,3.8e-11 M,19%
B6,6.7e-11 M,20%
B7,4e-11 M,37%
B8,4.1e-11 M,28%

# Target: T2, Cynomolgus …
# Test: SPR ProteOn off-rate screen
# Description: (§1) Unique ISVD clones, i.e. clones with a unique sequence, were subsequently selected and screened to determine their off-rate. To this purpose, the ISVD containing periplasmic extracts were screened on huTCR-zipper and cyTCR-zipper protein by SPR on a ProteOn XPR36 instrument. The zipper proteins were immobilized on a GLC sensor chip (between 4300 and 5100RU) via amine coupling chemistry, using EDC/sulfo-NHS for activation of the carboxyl groups on the chip surface (running buffer: HBS-EP+, pH7.4). Periplasmic extracts were injected at 1/10 dilution for 2 min (at a flow rate of 45 μL/min) and dissociation was followed for 900 s. A pulse of 100 s of 3 M MgCl2 at 45 μL/min was used for regeneration. […] Processed sensorgrams were fitted with the Langmuir model (1:1 interaction) using ProteOn Manager 3.1.0 (Version 3.1.0.6) software.
row,koff,Binder
1,0.0118 s⁻¹,B9
2,0.00939 s⁻¹,B10
3,0.0107 s⁻¹,B11

# Target: T2, Cynomolgus …
# Test: SPR ProteOn off-rate screen
# Remark: another data set of the same source
# Description: as §1
row,koff,Binder
1,0.0151 s⁻¹,B12
2,0.0121 s⁻¹,B13
3,0.0178 s⁻¹,B14
4,0.00672 s⁻¹,B15
5,0.0087 s⁻¹,B16
6,0.00171 s⁻¹,B17
7,0.00555 s⁻¹,B18
8,0.0216 s⁻¹,B19
9,0.00559 s⁻¹,B20
10,0.0148 s⁻¹,B21
11,0.0162 s⁻¹,B22

# Target: T2, Cynomolgus …
# Test: SPR ProteOn off-rate screen
# Remark: another data set of the same source
# Description: as §1
row,koff,Binder
1,0.000221 s⁻¹,B23
2,0.00141 s⁻¹,B24
3,0.00115 s⁻¹,B25
4,0.00216 s⁻¹,B26
5,0.00308 s⁻¹,B27
6,0.00055 s⁻¹,B28

# Target: T1, Human T cell receptor on human primary …
# Test: flow cytometry, human primary T cells
# Protocol: The ISVD variants were characterized for binding to CHO-K1 huTCR(2XN9)/huCD3 or to human and cynomolgus primary T cells. […] Next, cells were washed 3 times with FACS buffer and incubated with 1 μg/ml ANTI-FLAG® M2 Ab (Sigma, F1804) and washed again. […] Subsequently, cells were resuspended in FACS buffer supplemented with 5 nM TO-PRO®-3 Iodide to distinguish live from dead cells, which are removed during the gating procedure. Cells were analyzed using a FACS Array flow cytometer (BD Biosciences) and Flowing Software. First a P1 population which represented more than 80% of the total cell population was selected based on FSC-SSC distribution. In this gate, 10000 cells were counted during acquisition. From this population the TO-PRO®-3+cells (dead cells) were excluded and the mean fluorescence intensity (MFI) PE value was calculated.
row,EC50,Binder
1,58 nM,B29
2,66 nM,B30
3,66 nM,B31
4,55 nM,B32

# Target: T3, Cynomolgus …
# Test: SPR, ProteOn XPR36, 25 C, immobilised TCR-zipper
# Description: HuTCR-zipper or cyTCR-zipper protein was immobilized on a GLC sensor chip (between 100-200 RU) via amine coupling chemistry, using EDC/NHS for activation of the carboxyl groups on the chip surface (running buffer: HBS-EP+, pH7.4). […] Processed sensorgrams were fitted with the Langmuir model (1:1 interaction) using ProteOn Manager 3.1.0 (Version 3.1.0.6) software.
row,Kd,Binder
1,240 nM,B1
2,15000 nM,B2
3,290 nM,B3
4,900 nM,B4
5,5.2 nM,B5
6,29 nM,B6
7,5.5 nM,B7
8,44 nM,B8

# Target: T2, Cynomolgus …
# Test: ratio higher/lower kd on huTCR- and cyTCR-zipper (SPR)
# Description: as §1
row,gap in off-rate human vs cyno,Binder
1,7.5 fold,B33
2,3 fold,B23
3,8 fold,B24
4,8 fold,B25
5,5 fold,B26
6,9 fold,B27
7,2 fold,B28
